The supplement of paper PMC10567573

B1: TNXB (parent)
chain: LLQRELMVPGTRHSAVLRDLRSGT
B2: RHOBTB2 (parent)
chain: NQEITKAFHVRRTNRVKECLAKGT

Variants of: B1
Experiment: protein stability index of a GFP-peptide fusion (GPS, HEK-293T) (PSI 1-6); higher = more stable
Conditions: c terminus: a fixed tail appended
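Further: lentivirally expressed fusions sorted by FACS into six bins by GFP to DsRed ratio, PSI derived from sequencing read proportions per bin multiplied by bin number.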

Protein stability index: each site, then its substitutions
L2: D 3.23, W 2.12, M 2.28, P 3.71, A 3.36, F 2.15, V 2.48, I 2.79, G 3.42, K 3.33, E 3.95, N 3.34
L17: P 2.97, Y 2.45, E 3.47, A 2.55, R 3.46, N 2.96, H 2.28, T 2.73, C 2.54, G 2.84
T24: P 2.54, G 3.51, S 2.2, I 1.72, H 2.13, W 1.84, R 2.88, M 2.29, C 1.77, K 2.03, A 2.7, F 2.13
A15: P 2.35, Q 1.97, W 3.49, E 2.92, L 2.14, T 2.18, F 1.98, C 1.72, N 3.19, V 1.95, I 2.26, D 2.29, S 2.27, R 3.4, G 2.34, M 2.43, H 2.41
L1: M 2.73, I 2.47, T 3.02, N 3.54, R 3.04, V 2.47, E 3.08, H 2.98
L20: D 3.65, Q 2.89, P 2.53, G 3.37, S 3.38, K 3.02, H 2.7, F 1.92, Y 2.27
T11: M 2.2, C 1.56, I 2.38, G 3.21, K 2.32, P 2.51, L 2.32, N 2.43, W 1.69, F 2.3, E 2.65, A 2.2
R18: W 1.8, F 2.02, P 2.75, M 2.12, Y 2.07, E 3.33, G 2.44, A 2.68, L 1.94, H 2.86, C 2.42, D 2.83, Q 2.48
Q3: E 3.52, T 2.17, H 2.49, C 1.93, Y 1.72, R 2.49, V 1.58, M 2.16, I 1.72, W 2.15, K 2.7, F 2.59, P 2.88
G10: E 3.01, V 2.02, I 1.64, A 2.39, R 2.9, M 1.72, Q 2.41, L 1.35, S 3.01, W 1.72, T 2.58
R4: V 1.81, H 2.73, P 2.77, I 2.3, Q 2.46, T 2.23, S 2.42, C 2.49, K 2.46, Y 2.37, L 2.76, G 2.43, D 3.44
P9: E 2.54, M 2.1, K 2.21, Q 2.1, S 2.2, N 2.34, W 1.68, C 2, L 2.02, A 2.35, Y 2.01, I 1.58
M7: W 2.05, G 3.15, K 2.52, V 2.67, R 2.16, L 2.39, T 2.72, I 2.44, N 2.57, F 2.02, E 3.61, A 2.97
R12: M 1.85, T 2.27, E 2.39, A 2.01, P 2.91, Y 2.45, N 2.76, Q 2.42, G 3.09, K 2.28, F 1.98, W 2.35, S 2.06
S22: R 2.78, G 2.12, P 2.43, H 2.2, L 2.04, C 2, Q 3.04, T 2.39, D 2.96, M 2.19, E 2.41
V8: N 2.59, L 2.35, A 2.42, K 2.46, S 3.11, P 2.21, I 1.99, H 2.36
S14: T 2.45, V 2.22, M 2.23, A 2.2, Y 2.71, F 2.32, H 2.26, I 1.75, G 2.63, L 1.61, Q 2.85, C 2.03, R 2.45, N 2.88, K 2.67
R21: K 3.03, L 1.99, G 2.43, W 2.75, I 2.13, Q 2.01, F 1.95, N 2.34, V 1.88, H 3.21, M 1.99, S 2.06
L6: M 2.49, T 3.53, V 2.89, S 3.1, G 2.8, H 3.18, I 2.19, F 2.74, E 2.7, N 2.9, A 2.43
H13: I 1.91, F 1.59, E 2.82, T 2.22, Q 3, V 2.1, R 3.11, S 2.9, K 2.09, W 2.01, A 2.53, N 2.58, P 3.06, G 2.31, Y 2.15
V16: H 2.46, D 3.19, Q 2.68, A 3.05, F 1.71, M 2.15, S 2.27, R 2.52
D19: L 1.75, R 1.69, S 2.31, W 1.73, E 2.78, C 1.49, P 2.69, F 2.18, H 2.26, Y 2.23, G 2.31, I 1.71, T 2.46
E5: Y 2.38, Q 2.6, H 1.87, M 1.64, I 2.06, K 2.6, S 2.29, N 2.85, V 2.11, R 1.98, A 1.81
G23: C 2.36, R 2.72, T 2.43, A 2.31, L 1.81, S 2.94, D 3.38, M 2.22, V 2.13, F 2.82, N 2.58, W 2.09, E 3.05

Variants of: B2
Experiment: as above
Conditions: c terminus: a fixed tail appended

Protein stability index of substitutions, site by site:
E3: F 2.04, H 2.47, V 2.4, Q 2.22, G 3.15, D 2.63, P 3.38, K 3.06, N 3.38, I 2.57, C 2.31, L 3.66, M 2.87, R 3.02, S 2.26
N1: S 3.94, Q 3.87, F 2.07, W 2.45, G 2.88, A 4.01, M 2.66, L 2.31, V 3.07, C 2.25, I 1.59, K 3.49, P 4.54, Y 2.26, E 4.01, T 1.57, H 2.86
Q2: C 3.16, W 2.69, E 4.05, K 3.78, P 3.4, G 2.39, Y 3.31, V 3.5, H 3.53, N 3.42, M 3.01, R 2.83, L 2.4, I 2.6, D 4.2, T 3.74, F 3.01, A 3.21
